Experimental data taken from patent US20220251194A1 (Merck Sharp & Dohme, published 2022).

Legend:
[1] = target: T1, human PD1 on PathHunter U2OS dimer cells (human, UniProt Q15116 25-288); assay: PathHunter dimerization assay, U2OS cells co-expressing human PD1 and LAG3; the signal needs both targets to be bound on the same cell
T1 construct: whole, on cells; On Human PD1/LAG3 dimer cell Clone #9 (Lot 56AUA) and Human PD1/TIGIT dimer cell Clone #5 (Lot 14BAU); also called hPD1; not shown: beta-galactosidase fragment (ProLink or Enzyme Acceptor)

[2] = target: T2, Human PD1 (50AFR), [VEGF leader]-Sino-Bio-PD-1_H-[His9G] (human, UniProt Q15116 25-167); assay: SPR (Biacore T200 or 4000), antibody captured via anti-human Fc, antigen as analyte
T2 construct: Expressed with a VEGF leader; also called PD-1-His (50AFR)
Protocol: (§1) Binding affinities were measured using a Biacore T200 or Biacore 4000 biosensor (GE Healthcare, Chicago, Ill.). The following running buffer, 10 mM HEPES, 150 mM NaCl, 0.05% v/v Surfactant P20, 3 mM EDTA (GE Healthcare, BR100669, Chicago, Ill.), was used for immobilization, sample dilution and data collection. All experiments were performed at 25° C. Antigen binding to antibodies captured via an anti-human Fc antibody was measured using a Series S Sensor Chip CM5 (GE Healthcare, 29149603, Chicago, Ill.). An anti-human Fc antibody was immobilized on all surfaces of the chip according to the instructions in the Human Antibody Capture Kit (GE Healthcare, BR100839, Chicago, Ill.) and the Amine Coupling Kit (GE Healthcare, BR100633, Chicago, Ill.). […] After the antigen injections the dissociation of the interaction was monitored for 15 minutes. Between binding cycles the antibody and antigen were removed from the chip with a 30 second injection of 3 M MgCl₂.
(§2) The data were processed and fit using Biacore T200 Evaluation Software version 2.0 or Biacore 4000 Evaluation Software version 1.1 (GE Healthcare, Chicago, Ill.). The data were “double referenced” by subtracting the response from a negative control flowcell and subtracting the response from a buffer injection or the average response from two buffer injections. The data were then fit with the ‘1:1 Binding’ model to determine the association rate constant, kₐ (M⁻¹s⁻¹, where “M” equals molar and “s” equals seconds) and the dissociation rate constant, kd (s⁻¹). These rate constants were used to calculate the equilibrium dissociation constant, KD (M)=[…].

human TIGIT (94AGV) = target: T3, human TIGIT (94AGV) (human, UniProt Q495A1 22-141, limits assumed); assay: as above
T3 construct: Lot 94AGV is not described further
T3 sequence (looked up): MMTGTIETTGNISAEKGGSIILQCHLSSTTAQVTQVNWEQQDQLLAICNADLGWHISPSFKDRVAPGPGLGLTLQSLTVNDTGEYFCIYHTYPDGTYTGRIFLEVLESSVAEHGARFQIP
Protocol: as §1, §2

human LAG-3 (60AXE) = target: T4, human LAG-3 (60AXE) (human, UniProt P18627 23-450, limits assumed); assay: as above
T4 construct: Lot 60AXE is not described further
T4 sequence (looked up): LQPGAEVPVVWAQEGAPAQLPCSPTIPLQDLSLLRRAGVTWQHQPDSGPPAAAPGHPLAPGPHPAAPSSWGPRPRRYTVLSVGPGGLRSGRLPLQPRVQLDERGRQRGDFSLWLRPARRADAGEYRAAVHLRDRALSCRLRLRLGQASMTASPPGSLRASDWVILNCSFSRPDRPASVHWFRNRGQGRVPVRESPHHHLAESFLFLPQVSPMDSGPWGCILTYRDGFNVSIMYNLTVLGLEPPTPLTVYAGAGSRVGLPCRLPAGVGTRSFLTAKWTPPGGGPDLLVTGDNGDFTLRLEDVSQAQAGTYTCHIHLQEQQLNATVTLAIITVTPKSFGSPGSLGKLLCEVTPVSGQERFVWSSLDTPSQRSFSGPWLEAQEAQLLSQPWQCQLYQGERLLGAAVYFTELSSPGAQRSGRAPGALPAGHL
Protocol: as §1, §2

[3] = target: T5, polyhistidine-tagged human PD-1 (hPD1-His, 98AFK) (human, UniProt Q15116 25-167, limits assumed); assay: SPR (Biacore T200), mAb captured on anti-Fc chip; reference Mouse 08A
T5 construct: also called human PD1-His; Human PD-1-His
Protocol: (§3) A surface plasmon resonance (SPR)-based assay utilizing capture mode was used to determine the binding kinetics and affinities of anti-PD-1 antibodies against polyhistidine-tagged human PD-1 (hPD1-His, 98AFK). Following manufacture instructions, a series S sensor chip CM5 (GE Healthcare, BR100530) was activated using an amine-coupling kit (GE Healthcare, BR100050). Either human capture kit (anti-human Fc, 25 μg/mL, GE Healthcare, BR100839) or mouse capture kit (anti-mouse Fc, 30 μg/mL, GE Healthcare, BR100838) antibody diluted in the supplied pH 5.0, 10 mM sodium acetate buffer was immobilized onto the activated surface for 7 minutes. After immobilization, surfaces were deactivated with 1M ethanolamine/HCl (pH 8.5) for 7 minutes.
(§4) Binding kinetics were measured on a biacore T200 in HBS-EP+ (0.01 M HEPES pH 7.4, 0.15 M NaCl, 3 mM EDTA, 0.05% v/v Surfactant P20) running buffer at 25° C. Antibodies were captured either on mouse or human Fc capture surfaces at 10 μL/min flow rate. Antibodies were captured on flow cells 2, 3 and 4. Flow cell 1 was used as a reference with no antibody captured. A 6-point, 2-fold serial dilutions of the analyte 98AFK (hPD1-His), starting at 20 nM, were prepared in the running buffer (HBS-EP+). Two buffer blanks were included for double referencing. Titration series were injected for 3 minutes at 50 μl/min followed by 600 seconds of dissociation. After each cycle, surfaces were regenerated with a 30 second injection of 3M MgCl₂ at […] on the anti-human Fc chip or 180 seconds of 10 mM Glycine pH 1.7 at 10 μl/min on the anti-mouse Fc chip.
(§5) Sensorgram processing and data analysis were performed with Biacore T200 Evaluation Software Version 2.0.4 (GE Healthcare). […] Processed curves were globally fitted to a 1:1 binding model to determine the association rate constant, kₒₙ (M⁻¹s⁻¹, where “M” equals molar and “s” equals seconds) and the dissociation rate constant, koff (s⁻¹). These rate constants were used to calculate the equilibrium dissociation constant, KD (M)=koff/kₒₙ.

[4] = target: T5, polyhistidine-tagged human PD-1 …; assay: SPR (Biacore T200), mAb captured on anti-Fc chip, hPD1-His as analyte
Protocol: as §3, §4, §5

[5] = target: T5, polyhistidine-tagged human PD-1 …; assay: SPR solution affinity (Biacore T200, competition mode, equilibrium titration)
Protocol: (§6) The titration series were incubated for 16-24 hours to reach equilibrium at room temperature. The unbound sites were measured using a BIAcore chip immobilized with antigen in a competition mode where SPR signal detected corresponded to unbound antibody.
(§7) The titration series following >16 hr. incubation were injected over the sensor chip immobilized with hPD1-His (above). Free, unbound antibodies concentrations were measured as proportional to RU after 120 seconds (for 500 pM mAb series) or 400 seconds (for 100 pM mAb series) of injection at 10 μL/min. After each cycle, surfaces were regenerated with a 30 second injection of 1:1 mixture of 3M MgCl₂ and pH 2.0 10 mM glycine at 30 μL/min.

[6] = target: T5, polyhistidine-tagged human PD-1 …; assay: SPR solution affinity; reference Humanized 08A IgG4 S61N (98AIO)
Protocol: as §6, §7

T5 sequence (Q15116 25-167 limits assumed): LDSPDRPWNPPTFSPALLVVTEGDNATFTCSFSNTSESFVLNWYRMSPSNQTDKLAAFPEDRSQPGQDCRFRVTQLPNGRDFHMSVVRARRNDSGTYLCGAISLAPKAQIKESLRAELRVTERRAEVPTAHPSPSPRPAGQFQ
T1 sequence (Q15116 25-288): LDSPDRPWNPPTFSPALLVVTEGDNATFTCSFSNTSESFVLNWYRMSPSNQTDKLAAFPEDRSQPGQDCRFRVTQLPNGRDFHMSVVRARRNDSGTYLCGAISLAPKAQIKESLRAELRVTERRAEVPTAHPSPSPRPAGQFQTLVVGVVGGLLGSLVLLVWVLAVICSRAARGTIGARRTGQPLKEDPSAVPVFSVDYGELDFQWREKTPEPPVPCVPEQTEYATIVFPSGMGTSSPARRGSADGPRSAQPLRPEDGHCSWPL
T2 sequence (Q15116 25-167): as the sequence (Q15116 25-167 limits assumed) above

B1: Humanized x [LAG3_H][TIGIT_H] BsAb (22D2 VH6 C-term 31C6 scFv VL-VH / VL3 Y31W) IgG1 L234A L235A D265S / Kappa (Lot 80BCK) (bispecific antibody)
heavy: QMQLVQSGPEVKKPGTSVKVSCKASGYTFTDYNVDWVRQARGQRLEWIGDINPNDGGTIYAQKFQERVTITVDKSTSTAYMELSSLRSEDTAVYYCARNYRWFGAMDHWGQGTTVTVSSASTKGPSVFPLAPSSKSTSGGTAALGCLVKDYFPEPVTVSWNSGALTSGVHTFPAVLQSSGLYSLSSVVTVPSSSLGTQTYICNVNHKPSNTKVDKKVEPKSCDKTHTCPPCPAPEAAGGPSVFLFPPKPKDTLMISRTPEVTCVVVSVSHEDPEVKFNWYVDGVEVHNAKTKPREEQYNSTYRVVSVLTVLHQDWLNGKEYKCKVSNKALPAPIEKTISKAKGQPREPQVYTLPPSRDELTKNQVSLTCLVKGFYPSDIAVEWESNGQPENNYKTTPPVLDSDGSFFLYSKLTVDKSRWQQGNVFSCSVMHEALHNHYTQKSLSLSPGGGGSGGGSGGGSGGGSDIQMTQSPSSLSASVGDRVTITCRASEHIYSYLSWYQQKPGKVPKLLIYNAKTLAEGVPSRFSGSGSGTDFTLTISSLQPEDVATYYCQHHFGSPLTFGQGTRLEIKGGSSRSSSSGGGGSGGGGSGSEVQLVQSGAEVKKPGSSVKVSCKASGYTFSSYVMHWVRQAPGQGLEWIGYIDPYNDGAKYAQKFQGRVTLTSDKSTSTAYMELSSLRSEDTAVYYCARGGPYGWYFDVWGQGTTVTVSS
light: DIVMTQTPLSLSVTPGQPASISCKASQSLDWEGDSDMNWYLQKPGQPPQLLIYGASNLESGVPDRFSGSGSGTDFTLKISRVEAEDVGVYYCQQSTEDPRTFGGGTKVEIKRTVAAPSVFIFPPSDEQLKSGTASVVCLLNNFYPREAKVQWKVDNALQSGNSQESVTEQDSKDSTYSLSSTLTLSKADYEKHKVYACEVTHQGLSSPVTKSFNRGEC
notes: Anti-LAG3 IgG1 with an anti-TIGIT scFv at the C-terminus of the heavy chain; also called 80BCK (control); Hz x Hu [LAG3]; [TIGIT]; BsAb (Y31W)
binding result [1]: no binding

B2: anti-PD-1/LAG-3/TIGIT trispecific antibody (TsAbY31W) (Lot 30BCM) (other)
heavy 1: EVQLVQSGAEVKKPGASVKVSCKASGYTFTSYYLYWVRQAPGQGLEWIGGVNPSNAGTNFNEKFKSRVTLTVDTSISTAYMELSRLRSDDTAVYYCTRRLSHYDGGFDYWGQGTTVTVSSASTKGPSVFPLAPSSKSTSGGTAALGCEVTDYFPEPVTVSWNSGALTSGVHTFPAVLESSGLYSLLSVVTVPSSSLGTQTYICNVNHKPSNTKVDKKVEPKSCDKTHTCPPCPAPEAAGGPSVFLFPPKPKDTLMISRTPEVTCVVVSVSHEDPEVKFNWYVDGVEVHNAKTKPREEQYNSTYRVVSVLTVLHQDWLNGKEYKCKVSNKALPAPIEKTISKAKGQPREPQVYVYPPSRDELTKNQVSLTCLVKGFYPSDIAVEWESNGQPENNYKTTPPVLDSDGSFALVSKLTVDKSRWQQGNVFSCSVMHEALHNHYTQKSLSLSPGGGGSGGGSGGGSGGGSDIQMTQSPSSLSASVGDRVTITCRASEHIYSYLSWYQQKPGKVPKLLIYNAKTLAEGVPSRFSGSGSGTDFTLTISSLQPEDVATYYCQHHFGSPLTFGQGTRLEIKGGSSRSSSSGGGGSGGGGSGSEVQLVQSGAEVKKPGSSVKVSCKASGYTFSSYVMHWVRQAPGQGLEWIGYIDPYNDGAKYAQKFQGRVTLTSDKSTSTAYMELSSLRSEDTAVYYCARGGPYGWYFDVWGQGTTVTVSS
light 1: DIVMTQTPLSLSVTPGQPASISCRASKSVSTSGFSYLHWYLQKPGQPPQLLIFLSKYRSSGVPDRFSGSGSGTDFTLKISRVEAEDVGVYYCSQAYHLPLTFGQGTKLEIKRTVAAPSVFIFPPSDERLKSGTASVVCLLNNFYPREAKVQWKVDNALQSGNSQESVTEQDSKDSTYSLSSRLTLSKADYEKHKVYACEVTHQGLSSPVTKSFNRGEC
heavy 2: QMQLVQSGPEVKKPGTSVKVSCKASGYTFTDYNVDWVRQARGQRLEWIGDINPNDGGTIYAQKFQERVTITVDKSTSTAYMELSSLRSEDTAVYYCARNYRWFGAMDHWGQGTTVTVSSASTKGPSVFPLAPSSKSTSGGTAALGCLVKDYFPEPVTVSWNSGALTSGVHTFPAVLQSSGLYKLSSVVTVPSSSLGTQTYICNVNHKPSNTKVDKKVEPKSCDKTHTCPPCPAPEAAGGPSVFLFPPKPKDTLMISRTPEVTCVVVSVSHEDPEVKFNWYVDGVEVHNAKTKPREEQYNSTYRVVSVLTVLHQDWLNGKEYKCKVSNKALPAPIEKTISKAKGQPREPQVYVLPPSRDELTKNQVSLLCLVKGFYPSDIAVEWESNGQPENNYLTWPPVLDSDGSFFLYSKLTVDKSRWQQGNVFSCSVMHEALHNHYTQKSLSLSPGGGGSGGGSGGGSGGGSDIQMTQSPSSLSASVGDRVTITCRASEHIYSYLSWYQQKPGKVPKLLIYNAKTLAEGVPSRFSGSGSGTDFTLTISSLQPEDVATYYCQHHFGSPLTFGQGTRLEIKGGSSRSSSSGGGGSGGGGSGSEVQLVQSGAEVKKPGSSVKVSCKASGYTFSSYVMHWVRQAPGQGLEWIGYIDPYNDGAKYAQKFQGRVTLTSDKSTSTAYMELSSLRSEDTAVYYCARGGPYGWYFDVWGQGTTVTVSS
light 2: DIVMTQTPLSLSVTPGQPASISCKASQSLDWEGDSDMNWYLQKPGQPPQLLIYGASNLESGVPDRFSGSGSGTDFTLKISRVEAEDVGVYYCQQSTEDPRTFGGGTKVEIKRTVAAPSVFIFPPSDEELKSGTATVVCLLNNFYPREAKVQWKVDNALQSGNSQESVTEQDSKDSTYSLSSYLELSKADYEKHKVYACEVTHQGLSSPVTKSFNRGEC
notes: Trispecific heterodimeric IgG1 / kappa; also called Y31W mutant; Hz x Hu [PD-1]; [TIGIT]; [LAG3]; TsAb (Y31W)
Kd [2]: 289 pM
Kd (human TIGIT (94AGV)): 1090 pM
Kd (human LAG-3 (60AXE)): 23 pM

B3: Humanized 08A IgG4 S61N G56A (antibody, V domains shown)
VH: EVQLVQSGAEVKKPGASVKVSCKASGYTFTSYYLYWVRQAPGQGLEWIGGVNPSNAGTNFNEKFKSRVTLTVDTSISTAYMELSRLRSDDTAVYYCTRRDSNYDGGFDYWGQGTTVTVSS
VL: DIVMTQTPLSLSVTPGQPASISCRASKSVSTSGFSYLHWYLQKPGQPPQLLIFLASNLESGVPDRFSGSGSGTDFTLKISRVEAEDVGVYYCQHSWELPLTFGQGTKLEIKR
notes: IgG4 S228P / kappa; also called 51AQK; Humanized x [PD-1_H] mAb (08A/HuPD1A-11 S61N VH G56A / VL) IgG4 S228P / Kappa
KD (REF)/KD [3]: 4.2
Kd [4]: 57 pM
Kd [5]: 33 pM
KD (REF)/KD [6]: 1

B4: Humanized 08A IgG4 Fab 100 S61N G56A (antibody, V domains shown)
VH: EVQLVQSGAEVKKPGASVKVSCKASGYTFTSYYLYWVRQAPGQGLEWIGGVNPSNAGTNFNEKFKSRVTLTVDTSISTAYMELSRLRSDDTAVYYCTRRLSHYDGGFDYWGQGTTVTVSS
VL: DIVMTQTPLSLSVTPGQPASISCRASKSVSTSGFSYLHWYLQKPGQPPQLLIFLSKYRSSGVPDRFSGSGSGTDFTLKISRVEAEDVGVYYCSQAYHLPLTFGQGTKLEIKR
notes: also called 25AVE
KD (REF)/KD [3]: 5.7
Kd [4]: 42 pM
Kd [5]: < 2.5 pM
KD (REF)/KD [6]: > 13
